Key:
[1] = biological target: human polyclonal IgG (available from Japan Blood Products Organization) (human); experiment: immobilised on agarose gel; IgG eluted at pH 4.0 as % of pH 4.0 + pH 2.8 eluates
[2] = biological target: human polyclonal IgG (available from Japan Blood Products Organization) (human); experiment: dynamic binding, 3 mg/mL IgG, 10% breakthrough, 5 min retention
[3] = biological target: human polyclonal IgG (available from Japan Blood Products Organization) (human); experiment: elution ratio at pH 4.0 relative to PN-621

Binder | Elution Ratio (%) under Weakly Acidic Conditions [1] | Binding Amount of IgG [2] | Elution Ratio, relative ratio with respect to PN-621 [3]
PN-621 Variant, five sequences α8 and one sequence β8 (designed binder) ADNIFNREVQAAFYHILHLPNLTEEQRNAFIQSLRDDPSVVAEILAEARRLNDAQAPRADNIFNREVQAAFYHILHLPNLTEEQRNAFIQSLRDDPSVVAEILAEARRLNDAQAPRADNIFNREVQAAFYHILHLPNLTEEQRNAFIQSLRDDPSVVAEILAEARRLNDAQAPRADNIFNREVQAAFYHILHLPNLTEEQRNAFIQSLRDDPSVVAEILAEARRLNDAQAPRADNIFNREVQAAFYHILHLPNLTEEQRNAFIQSLRDDPSVVAEILAEARRLNDAQAPRADNIFNREVQAAFYHILHLPNLTEEQRNAFIQSLRDDPSKVKKILKEAKKLNKAQAPK | 75.7% | 66 mg/mL gel | 1.63
PN-621 Variant, five sequences α10 and one sequence β10 (designed binder) ADNIFNEELQHAFYLILHLPNLTEEQRNAFIQSLRDDPSVVAEILAEARRLNDAQAPRADNIFNEELQHAFYLILHLPNLTEEQRNAFIQSLRDDPSVVAEILAEARRLNDAQAPRADNIFNEELQHAFYLILHLPNLTEEQRNAFIQSLRDDPSVVAEILAEARRLNDAQAPRADNIFNEELQHAFYLILHLPNLTEEQRNAFIQSLRDDPSVVAEILAEARRLNDAQAPRADNIFNEELQHAFYLILHLPNLTEEQRNAFIQSLRDDPSVVAEILAEARRLNDAQAPRADNIFNEELQHAFYLILHLPNLTEEQRNAFIQSLRDDPSKVKKILKEAKKLNKAQAPK | 82.9% | 69 mg/mL gel | 1.79

From US20240043478A1
